Where no end group is shown, it is not given here.
T1: GST-HDMX (human (HDMX), UniProt O15151 1-134)
T1 chain: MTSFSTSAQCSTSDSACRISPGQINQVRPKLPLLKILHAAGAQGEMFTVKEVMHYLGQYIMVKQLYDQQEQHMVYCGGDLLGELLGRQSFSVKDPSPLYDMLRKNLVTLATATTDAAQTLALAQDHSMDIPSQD


What was measured:
GST-HDMX = biological target: T1, GST-HDMX; test: Competition ELISA
SP-5 = test: Affinity selection MS
SP-44 = test: Affinity selection MS

IC50 (GST-HDMX) [nM]	Kd (SP-5) [nM]	Kd (SP-44) [nM]	Binder
175			QSQQTFANLWRLLAQN (not fully specified (residues 7, 14, N-terminus, C-terminus, bridges)) [peptide 46 (Table 9), Ac-QSQQTF%r8NLWRLL%QN-NH2]
	25	25	GST-hDM2 (other) MCNTNMSVPTDGAVTTSQIPASEQETLVRPKPLLLKLLKSVGAQKDTYTMKEVLFYLGQYIMTKRLYDEKQQHIVYCSNDLLGDLFGVPSFSVKEHRKIYTMIYRNLVVVNQQESSDSGTSVSENRCHLEGGSDQKDL
	90	180	GST-hDMX (other) MTSFSTSAQCSTSDSACRISPGQINQVRPKLPLLKILHAAGAQGEMFTVKEVMHYLGQYIMVKQLYDQQEQHMVYCGGDLLGELLGRQSFSVKDPSPLYDMLRKNLVTLATATTDAAQTLALAQDHSMDIPSQD
